Results taken from US20150258192A1, “COMPOSITIONS AND METHODS FOR PREVENTING OR TREATING CHRONIC LUNG ALLOGRAFT DYSFUNCTION (CLAD) AND IDIOPATHIC PULMONARY FIBROSIS (IPF)” (priority 2014, published 2015).
No end group written: not given here.

Assays:
Assay in all cases: Kinase Profiling Assay
Assay type in all cases: biochemical
Conditions in all cases: peptide 100 μM
PDGFRβ(h) = PDGFRβ(h) (Homo sapiens, UniProt P09619)
Experimental: (§1) Every kinase activity measurement was conducted in duplicate.
(§2) Specifically, in these assays, a positively charged substrate is phosphorylated with a radiolabeled phosphate group from an ATP if the kinase is not inhibited by an inhibitor peptide. The positively charged substrate then is attracted to a negatively charged filter membrane, quantified with a scintillation counter, and compared to a 100% activity control.
(§3) In addition to determining the IC50 of the compound, the specificity of MK2 inhibitory peptides was assessed by examining activities of all 266 human kinases available for testing in the Millipore kinase profiling service (Table 1).

Abl(Q252H)(h) = Abl(Q252H)(h) (Homo sapiens, UniProt P00519, Q252H)
Experimental: as §1, §2, §3

TAO1(h) = biological target: T1, TAO1(h) (Homo sapiens, UniProt Q7L7X3)
T1 construct: purchased Millipore
T1 sequence (Q7L7X3 1-1001): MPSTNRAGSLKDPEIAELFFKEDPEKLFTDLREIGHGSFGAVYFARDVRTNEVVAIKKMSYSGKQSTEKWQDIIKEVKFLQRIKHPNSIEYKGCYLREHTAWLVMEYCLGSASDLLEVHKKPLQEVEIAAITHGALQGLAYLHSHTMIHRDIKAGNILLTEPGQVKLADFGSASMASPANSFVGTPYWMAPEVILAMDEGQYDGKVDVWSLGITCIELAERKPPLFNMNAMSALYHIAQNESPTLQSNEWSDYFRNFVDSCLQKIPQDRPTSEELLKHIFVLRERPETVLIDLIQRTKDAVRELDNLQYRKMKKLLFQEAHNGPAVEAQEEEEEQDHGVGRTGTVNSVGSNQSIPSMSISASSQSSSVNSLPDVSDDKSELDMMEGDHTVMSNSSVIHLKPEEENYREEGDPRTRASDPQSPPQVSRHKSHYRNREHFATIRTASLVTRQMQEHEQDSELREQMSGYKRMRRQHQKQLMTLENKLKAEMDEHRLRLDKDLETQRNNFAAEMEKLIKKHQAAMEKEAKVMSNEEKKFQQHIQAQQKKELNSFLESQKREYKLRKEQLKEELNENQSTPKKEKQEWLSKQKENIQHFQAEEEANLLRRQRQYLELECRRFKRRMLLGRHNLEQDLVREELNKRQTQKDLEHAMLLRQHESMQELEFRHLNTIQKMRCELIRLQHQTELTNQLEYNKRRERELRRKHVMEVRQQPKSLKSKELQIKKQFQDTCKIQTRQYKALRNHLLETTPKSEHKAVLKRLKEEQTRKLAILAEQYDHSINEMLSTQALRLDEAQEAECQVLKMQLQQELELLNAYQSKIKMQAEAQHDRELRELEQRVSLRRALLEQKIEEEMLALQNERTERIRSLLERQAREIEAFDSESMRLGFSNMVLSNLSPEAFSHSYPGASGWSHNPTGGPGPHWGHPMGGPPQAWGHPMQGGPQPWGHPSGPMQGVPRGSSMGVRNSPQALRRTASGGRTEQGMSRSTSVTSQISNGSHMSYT
Experimental: as §1, §2, §3

IRAK4(h) = biological target: T2, IRAK4(h) (Homo sapiens, UniProt Q9NWZ3)
T2 construct: purchased Millipore
T2 sequence (Q9NWZ3 1-460): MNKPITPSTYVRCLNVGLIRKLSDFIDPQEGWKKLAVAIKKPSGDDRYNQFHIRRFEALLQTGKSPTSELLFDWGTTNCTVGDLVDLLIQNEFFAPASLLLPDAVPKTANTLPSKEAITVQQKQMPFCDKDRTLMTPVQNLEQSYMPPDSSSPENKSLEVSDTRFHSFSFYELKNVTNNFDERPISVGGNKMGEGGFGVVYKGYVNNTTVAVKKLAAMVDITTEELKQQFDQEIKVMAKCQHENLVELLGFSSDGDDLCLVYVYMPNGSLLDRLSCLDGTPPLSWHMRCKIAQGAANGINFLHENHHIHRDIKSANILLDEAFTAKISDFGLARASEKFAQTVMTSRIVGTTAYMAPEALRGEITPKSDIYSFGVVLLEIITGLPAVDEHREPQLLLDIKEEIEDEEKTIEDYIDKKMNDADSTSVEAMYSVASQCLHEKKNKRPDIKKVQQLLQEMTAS
Experimental: as §1, §2, §3

CDK2/cyclinE(h) = CDK2/cyclinE(h) (Homo sapiens, UniProt P24941)
Experimental: as §1, §2, §3

CDK9/cyclin T1(h) = CDK9/cyclin T1(h) (Homo sapiens, UniProt P50750)
Experimental: as §1, §2, §3

DDR2(h) = biological target: T3, DDR2(h) (Homo sapiens, UniProt Q16832)
T3 sequence (Q16832 22-855): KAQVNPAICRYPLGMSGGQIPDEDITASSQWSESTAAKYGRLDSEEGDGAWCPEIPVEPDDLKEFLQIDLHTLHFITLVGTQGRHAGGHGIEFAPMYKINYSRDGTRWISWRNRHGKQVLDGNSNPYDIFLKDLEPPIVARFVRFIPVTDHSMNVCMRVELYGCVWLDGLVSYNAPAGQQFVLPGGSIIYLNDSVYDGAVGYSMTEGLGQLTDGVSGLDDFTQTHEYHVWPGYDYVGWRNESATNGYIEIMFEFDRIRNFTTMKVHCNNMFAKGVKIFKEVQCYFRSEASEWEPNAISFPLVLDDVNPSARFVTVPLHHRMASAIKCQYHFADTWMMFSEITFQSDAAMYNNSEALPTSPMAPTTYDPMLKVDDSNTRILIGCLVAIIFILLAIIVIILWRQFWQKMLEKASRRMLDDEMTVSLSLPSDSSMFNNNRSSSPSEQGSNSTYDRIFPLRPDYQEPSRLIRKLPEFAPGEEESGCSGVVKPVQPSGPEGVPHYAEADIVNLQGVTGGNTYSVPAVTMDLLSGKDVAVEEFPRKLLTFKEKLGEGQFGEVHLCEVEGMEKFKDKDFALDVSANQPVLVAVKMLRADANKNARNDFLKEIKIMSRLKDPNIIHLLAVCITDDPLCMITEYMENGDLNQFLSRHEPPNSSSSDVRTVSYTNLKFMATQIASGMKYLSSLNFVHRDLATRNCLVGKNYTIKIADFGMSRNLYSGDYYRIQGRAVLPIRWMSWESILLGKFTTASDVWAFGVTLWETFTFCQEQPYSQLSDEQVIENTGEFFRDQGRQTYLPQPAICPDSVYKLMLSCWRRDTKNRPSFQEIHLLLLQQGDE
Experimental: as §1, §2, §3

IRAK1(h) = biological target: T4, IRAK1(h) (Homo sapiens, UniProt P51617)
T4 construct: purchased Millipore
Experimental: as §1, §2, §3

Hck(h) = biological target: T5, Hck(h) (Homo sapiens, UniProt P08631)
T5 construct: purchased Millipore
Experimental: as §1, §2, §3

T5 sequence (P08631 whole entry): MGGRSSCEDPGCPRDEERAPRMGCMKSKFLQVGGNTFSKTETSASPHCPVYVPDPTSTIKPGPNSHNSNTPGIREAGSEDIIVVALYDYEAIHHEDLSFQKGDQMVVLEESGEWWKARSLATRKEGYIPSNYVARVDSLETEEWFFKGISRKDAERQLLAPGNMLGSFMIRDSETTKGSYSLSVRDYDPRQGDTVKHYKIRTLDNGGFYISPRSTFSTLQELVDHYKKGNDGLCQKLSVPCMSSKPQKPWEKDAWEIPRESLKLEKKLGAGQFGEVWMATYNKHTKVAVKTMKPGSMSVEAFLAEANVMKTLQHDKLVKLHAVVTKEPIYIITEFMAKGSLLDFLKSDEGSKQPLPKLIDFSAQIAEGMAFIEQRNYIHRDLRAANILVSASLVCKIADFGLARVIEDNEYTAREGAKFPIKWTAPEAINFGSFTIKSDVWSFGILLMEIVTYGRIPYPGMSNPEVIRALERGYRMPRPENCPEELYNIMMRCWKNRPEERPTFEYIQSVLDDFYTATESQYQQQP
T4 sequence (P51617 whole entry): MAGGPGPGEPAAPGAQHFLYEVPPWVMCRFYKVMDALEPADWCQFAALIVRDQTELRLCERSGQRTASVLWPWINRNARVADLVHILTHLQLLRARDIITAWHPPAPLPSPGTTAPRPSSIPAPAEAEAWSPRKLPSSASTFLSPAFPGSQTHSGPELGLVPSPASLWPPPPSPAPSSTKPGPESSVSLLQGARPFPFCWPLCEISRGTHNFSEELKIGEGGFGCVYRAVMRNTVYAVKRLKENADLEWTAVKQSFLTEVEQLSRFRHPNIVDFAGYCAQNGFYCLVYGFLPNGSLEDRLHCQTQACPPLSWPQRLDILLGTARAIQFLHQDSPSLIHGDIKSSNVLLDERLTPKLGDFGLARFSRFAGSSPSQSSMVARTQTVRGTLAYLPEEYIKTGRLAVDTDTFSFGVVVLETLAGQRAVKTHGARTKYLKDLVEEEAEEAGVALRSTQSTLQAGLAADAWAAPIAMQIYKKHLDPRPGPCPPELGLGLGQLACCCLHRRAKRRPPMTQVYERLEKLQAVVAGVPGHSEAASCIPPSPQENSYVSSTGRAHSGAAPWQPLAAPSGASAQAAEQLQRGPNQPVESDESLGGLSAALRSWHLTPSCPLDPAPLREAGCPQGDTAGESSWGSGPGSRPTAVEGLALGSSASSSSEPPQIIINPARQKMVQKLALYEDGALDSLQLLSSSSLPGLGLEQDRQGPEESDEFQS
Sequence of PDGFRβ(h) (P09619 33-1106): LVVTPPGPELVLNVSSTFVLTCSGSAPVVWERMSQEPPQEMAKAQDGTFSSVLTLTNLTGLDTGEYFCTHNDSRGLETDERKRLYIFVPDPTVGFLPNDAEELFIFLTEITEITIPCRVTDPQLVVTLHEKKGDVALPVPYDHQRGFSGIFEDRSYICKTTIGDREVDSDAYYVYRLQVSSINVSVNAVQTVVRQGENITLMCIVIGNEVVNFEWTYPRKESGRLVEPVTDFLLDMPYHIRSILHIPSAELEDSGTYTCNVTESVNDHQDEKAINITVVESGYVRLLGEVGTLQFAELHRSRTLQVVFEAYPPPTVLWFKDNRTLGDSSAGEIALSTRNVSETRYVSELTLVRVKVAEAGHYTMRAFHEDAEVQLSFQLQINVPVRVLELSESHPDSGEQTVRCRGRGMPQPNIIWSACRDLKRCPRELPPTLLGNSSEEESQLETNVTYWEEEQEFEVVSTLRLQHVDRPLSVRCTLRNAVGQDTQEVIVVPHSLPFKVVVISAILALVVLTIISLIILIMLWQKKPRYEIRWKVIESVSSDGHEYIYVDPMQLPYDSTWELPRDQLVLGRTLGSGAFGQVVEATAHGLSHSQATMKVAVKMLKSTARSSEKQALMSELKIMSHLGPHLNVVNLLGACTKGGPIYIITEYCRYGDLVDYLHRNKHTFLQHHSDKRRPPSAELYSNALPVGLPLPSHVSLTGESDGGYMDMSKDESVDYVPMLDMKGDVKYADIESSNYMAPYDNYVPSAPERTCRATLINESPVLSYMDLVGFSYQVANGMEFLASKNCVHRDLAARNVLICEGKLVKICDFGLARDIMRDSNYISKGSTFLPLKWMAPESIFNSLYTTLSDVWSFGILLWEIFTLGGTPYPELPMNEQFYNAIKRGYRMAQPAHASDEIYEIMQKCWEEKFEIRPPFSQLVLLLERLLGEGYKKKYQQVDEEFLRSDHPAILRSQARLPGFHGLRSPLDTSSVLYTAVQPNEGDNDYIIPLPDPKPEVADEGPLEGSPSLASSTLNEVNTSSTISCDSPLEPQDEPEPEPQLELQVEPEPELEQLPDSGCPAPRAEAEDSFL
Sequence of CDK9/cyclin T1(h) (P50750 whole entry): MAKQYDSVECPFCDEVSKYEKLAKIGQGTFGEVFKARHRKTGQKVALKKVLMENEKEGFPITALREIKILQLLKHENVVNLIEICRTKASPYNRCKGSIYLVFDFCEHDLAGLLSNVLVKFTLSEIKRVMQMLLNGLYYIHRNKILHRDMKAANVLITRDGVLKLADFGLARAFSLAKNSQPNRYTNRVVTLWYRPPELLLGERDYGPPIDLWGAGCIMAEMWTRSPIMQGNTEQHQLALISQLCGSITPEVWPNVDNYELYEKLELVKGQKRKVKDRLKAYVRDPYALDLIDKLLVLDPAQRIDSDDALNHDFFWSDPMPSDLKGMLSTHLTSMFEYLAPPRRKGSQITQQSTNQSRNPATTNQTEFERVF
Sequence of CDK9/cyclin T1(h) (O60563 whole entry partner): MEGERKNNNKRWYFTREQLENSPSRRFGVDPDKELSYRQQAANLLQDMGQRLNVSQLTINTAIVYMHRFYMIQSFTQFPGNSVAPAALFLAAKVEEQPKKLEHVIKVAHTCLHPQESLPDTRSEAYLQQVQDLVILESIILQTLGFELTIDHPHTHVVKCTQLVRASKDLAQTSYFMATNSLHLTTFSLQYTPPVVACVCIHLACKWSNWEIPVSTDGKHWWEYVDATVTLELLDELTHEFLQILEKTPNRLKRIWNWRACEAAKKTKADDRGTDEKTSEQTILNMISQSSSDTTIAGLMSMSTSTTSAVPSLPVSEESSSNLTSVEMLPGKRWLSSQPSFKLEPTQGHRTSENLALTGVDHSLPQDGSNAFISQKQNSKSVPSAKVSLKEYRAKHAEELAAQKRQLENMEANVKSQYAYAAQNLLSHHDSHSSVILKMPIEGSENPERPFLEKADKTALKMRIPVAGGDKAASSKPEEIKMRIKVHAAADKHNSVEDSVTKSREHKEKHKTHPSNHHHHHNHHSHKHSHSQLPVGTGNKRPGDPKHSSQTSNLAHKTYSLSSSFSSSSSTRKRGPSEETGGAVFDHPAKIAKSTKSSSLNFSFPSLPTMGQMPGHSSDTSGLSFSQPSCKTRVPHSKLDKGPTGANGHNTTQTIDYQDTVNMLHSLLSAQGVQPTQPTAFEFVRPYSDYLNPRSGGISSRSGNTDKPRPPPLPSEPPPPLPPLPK

Row | Sequence | % activity (PDGFRβ(h)) [%] | % activity (Abl(Q252H)(h)) [%] | % activity (TAO1(h)) [%] | % activity (IRAK4(h)) [%] | % activity (CDK2/cyclinE(h)) [%] | % activity (CDK9/cyclin T1(h)) [%] | % activity (DDR2(h)) [%] | % activity (IRAK1(h)) [%] | % activity (Hck(h)) [%]
1 | FAKLAARLYRKALARQLGVAA [MMI-0300] | 81 | 82 | 82 | 59 | 94 | 91 | 94 | 95 | 72
2 | HRRIKAWLKKIKALARQLGVAA (Mammal) [MMI-0500] | 40 | 40 | 24 | 3 | 19 | 6 | 79 | 5 | 78
3 | KAFAKLAARLYRKALARQLGVAA [MMI-0400] | 53 | 98 | 73 | 59 | 83 | 235 | 95 | 93 | 72
4 | YARAAARQARAKALARQLGVAA [MMI-0100] | – | – | 99 | – | – | – | – | – | –
5 | YARAAARQARAKALNRQLGVA (Mammal) [MMI-0200] | 137 | – | – | 110 | – | – | – | 101 | –
